# Test results as given in publication PMC8115288.
# Legend:
# [1] = biological target: GST-SAP18 (UniProt O00422); assay: pull-down; GST-INI1, GST-SAP18, GST-LEDGF or GST-Gemin2 as bait, His6-IN(WT) or His6-IN(W235E) as prey; bound protein quantified as fraction bound after normalising to the loading control
# [2] = biological target: GST-Gemin2 (UniProt O14893); assay: GST-pull down, quantitation of bound protein; settings: parent: est. 1.0; read off a plot
# [3] = biological target: GST-LEDGF (UniProt O75475); assay: GST-pull down, quantitation of bound protein; settings: parent: est. 1.0; read off a plot
# Chain of GST-LEDGF (O75475 whole entry): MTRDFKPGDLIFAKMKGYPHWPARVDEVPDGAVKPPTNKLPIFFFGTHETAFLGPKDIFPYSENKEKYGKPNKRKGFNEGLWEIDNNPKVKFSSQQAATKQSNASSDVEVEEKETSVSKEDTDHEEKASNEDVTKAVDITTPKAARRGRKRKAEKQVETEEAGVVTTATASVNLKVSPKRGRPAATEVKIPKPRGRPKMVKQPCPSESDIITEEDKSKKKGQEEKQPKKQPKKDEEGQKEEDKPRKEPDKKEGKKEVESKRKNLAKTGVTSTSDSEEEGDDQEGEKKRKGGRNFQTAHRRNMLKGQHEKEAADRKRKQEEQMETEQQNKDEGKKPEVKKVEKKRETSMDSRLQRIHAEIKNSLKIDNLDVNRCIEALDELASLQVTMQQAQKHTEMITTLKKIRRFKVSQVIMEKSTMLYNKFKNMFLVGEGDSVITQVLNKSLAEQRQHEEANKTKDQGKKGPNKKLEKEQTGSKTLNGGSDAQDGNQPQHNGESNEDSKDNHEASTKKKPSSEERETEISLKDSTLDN
# Chain of GST-Gemin2 (O14893 whole entry): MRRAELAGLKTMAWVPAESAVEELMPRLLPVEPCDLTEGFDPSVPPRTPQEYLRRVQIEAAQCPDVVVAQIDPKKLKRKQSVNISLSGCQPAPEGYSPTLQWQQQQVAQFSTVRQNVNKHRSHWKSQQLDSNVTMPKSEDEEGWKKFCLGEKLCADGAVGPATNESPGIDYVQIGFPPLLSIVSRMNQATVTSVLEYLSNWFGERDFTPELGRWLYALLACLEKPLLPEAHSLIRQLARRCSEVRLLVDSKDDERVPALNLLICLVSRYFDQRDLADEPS
# Chain of GST-SAP18 (O00422 whole entry): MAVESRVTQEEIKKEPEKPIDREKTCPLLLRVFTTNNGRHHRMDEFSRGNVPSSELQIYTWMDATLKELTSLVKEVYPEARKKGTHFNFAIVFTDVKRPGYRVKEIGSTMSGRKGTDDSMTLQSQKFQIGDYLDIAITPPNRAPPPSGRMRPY
Substance,% binding [1] [%],ratio to parent [2],ratio to parent [3]
His6-IN(W235E) (enzyme),20,–,–
His6-IN(WT) W235E,–,0.8,0.82
